Assay results published in paper PMC3809612.

Target: rat collagen (Type I collagen), coated on 96-well plates (rat) (UniProt P02454)
Assay: binding of fluorescent protein or nanoworm conjugate to coated 96-well plates

Chain of UniProt P02454 (P02454 152-1207, chain 1 of 2): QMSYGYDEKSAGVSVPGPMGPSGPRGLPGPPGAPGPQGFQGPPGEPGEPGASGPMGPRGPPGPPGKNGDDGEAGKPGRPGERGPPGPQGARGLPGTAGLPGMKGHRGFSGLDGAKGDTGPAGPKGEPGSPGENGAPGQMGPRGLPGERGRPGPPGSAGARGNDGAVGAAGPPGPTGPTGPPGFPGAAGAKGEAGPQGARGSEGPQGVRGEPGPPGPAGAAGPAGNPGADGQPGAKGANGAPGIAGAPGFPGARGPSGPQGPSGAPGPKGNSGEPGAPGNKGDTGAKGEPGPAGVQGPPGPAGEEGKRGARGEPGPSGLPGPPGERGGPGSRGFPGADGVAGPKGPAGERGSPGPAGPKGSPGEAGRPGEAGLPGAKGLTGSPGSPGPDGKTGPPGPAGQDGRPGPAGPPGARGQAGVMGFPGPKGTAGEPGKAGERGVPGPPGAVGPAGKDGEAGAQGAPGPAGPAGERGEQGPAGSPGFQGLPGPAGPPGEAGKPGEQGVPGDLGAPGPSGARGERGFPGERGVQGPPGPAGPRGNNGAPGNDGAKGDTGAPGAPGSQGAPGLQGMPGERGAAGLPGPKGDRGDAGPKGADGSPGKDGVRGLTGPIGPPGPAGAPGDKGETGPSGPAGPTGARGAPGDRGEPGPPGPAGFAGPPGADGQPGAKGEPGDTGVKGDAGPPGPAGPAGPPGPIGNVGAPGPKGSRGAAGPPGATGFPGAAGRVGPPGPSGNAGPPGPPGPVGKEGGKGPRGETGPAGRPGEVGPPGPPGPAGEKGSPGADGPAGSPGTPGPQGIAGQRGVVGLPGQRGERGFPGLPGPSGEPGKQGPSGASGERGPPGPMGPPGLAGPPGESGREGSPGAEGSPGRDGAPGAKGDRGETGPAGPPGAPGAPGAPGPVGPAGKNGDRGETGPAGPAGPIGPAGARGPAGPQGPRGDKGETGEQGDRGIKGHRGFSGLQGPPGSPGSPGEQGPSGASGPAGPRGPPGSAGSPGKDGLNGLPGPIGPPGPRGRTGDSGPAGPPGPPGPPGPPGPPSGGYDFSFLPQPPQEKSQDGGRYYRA
Chain of UniProt P02454 (P02466 86-1125, chain 2 of 2, further chain): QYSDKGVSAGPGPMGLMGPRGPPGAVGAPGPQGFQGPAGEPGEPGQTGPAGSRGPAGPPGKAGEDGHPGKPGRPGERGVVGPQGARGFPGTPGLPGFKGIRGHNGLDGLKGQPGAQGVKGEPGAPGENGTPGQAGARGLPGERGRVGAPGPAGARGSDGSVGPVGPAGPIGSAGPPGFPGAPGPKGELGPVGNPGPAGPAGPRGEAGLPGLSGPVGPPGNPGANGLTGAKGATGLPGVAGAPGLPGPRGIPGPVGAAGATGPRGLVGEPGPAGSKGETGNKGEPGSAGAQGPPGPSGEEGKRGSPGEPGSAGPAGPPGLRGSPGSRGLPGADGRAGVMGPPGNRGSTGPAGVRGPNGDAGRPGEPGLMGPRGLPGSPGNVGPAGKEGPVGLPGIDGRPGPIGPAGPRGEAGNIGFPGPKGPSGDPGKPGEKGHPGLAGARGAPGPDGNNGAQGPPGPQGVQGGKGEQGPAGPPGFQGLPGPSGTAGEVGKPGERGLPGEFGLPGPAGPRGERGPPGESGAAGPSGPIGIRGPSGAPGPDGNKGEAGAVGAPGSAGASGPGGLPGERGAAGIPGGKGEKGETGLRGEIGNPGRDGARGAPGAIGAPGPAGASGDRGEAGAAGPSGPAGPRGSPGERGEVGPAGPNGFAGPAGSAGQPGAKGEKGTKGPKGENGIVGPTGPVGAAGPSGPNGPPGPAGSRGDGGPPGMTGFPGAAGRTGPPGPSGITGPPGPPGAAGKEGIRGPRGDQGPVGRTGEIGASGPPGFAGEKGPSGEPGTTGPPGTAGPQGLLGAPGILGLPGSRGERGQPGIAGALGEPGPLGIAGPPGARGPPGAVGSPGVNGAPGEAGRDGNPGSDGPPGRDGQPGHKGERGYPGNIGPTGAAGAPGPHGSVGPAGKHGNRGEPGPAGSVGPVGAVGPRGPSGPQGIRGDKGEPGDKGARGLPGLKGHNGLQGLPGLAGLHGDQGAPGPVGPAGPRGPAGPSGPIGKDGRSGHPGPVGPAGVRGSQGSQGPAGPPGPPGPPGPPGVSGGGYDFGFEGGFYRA

| fold increase in binding over unheated controls | half-maximal binding temperature (temperature to which the collagen was heated) | fold increase in binding to heated collagen, normalized to collagen at 37 °C | Substance |
| --- | --- | --- | --- |
| 6 fold | 41.7 °C | – | fibronectin fragment-conjugated iron oxide nanoworms |
| – | 43.4 °C | 7.2 x | 45-kDa gelatin-binding fibronectin proteolytic fragment, labelled with VivoTag-S750 (domain or fragment) |
